B1: Krev interaction trapped protein 1 (Homo sapiens), O00522 (parent)
chain: MGNPENIEDAYVAVIRPKNTASLNSREYRAKSYEILLHEVPIEGQKKKRKKVLLETKLQGNSEITQGILDYVVETTKPISPANQGIRGKRVVLMKKFPLDGEKMGREASLFIVPSVVKDNTKYTYTPGCPIFYCLQDIMRVCSESSTHFATLTARMLIALDKWLDERHAQSHFIPALFRPSPLERIKTNVINPAYATESGQTENSLHMGYSALEIKSKMLALEKADTCIYNPLFGSDLQYTNRVDKVVINPYFGLGAPDYSKIQIPKQEKWQRSMSSVTEDKERQWVDDFPLHRSACEGDSELLSRLLSERFSVNQLDSDHWAPIHYACWYGKVEATRILLEKGKCNPNLLNGQLSSPLHFAAGGGHAEIVQILLNHPETDRHITDQQGRSPLNICEENKQNNWEEAAKLLKEAINKPYEKVRIYRMDGSYRSVELKHGNNTTVQQIMEGMRLSQETQQYFTIWICSENLSLQLKPYHKPLQHVRDWPEILAELTNLDPQRETPQLFLRRDVRLPLEVEKQIEDPLAILILFDEARYNLLKGFYTAPDAKLITLASLLLQIVYGNYESKKHKQGFLNEENLKSIVPVTKLKSKAPHWTNRILHEYKNLSTSEGVSKEMHHLQRMFLQNCWEIPTYGAAFFTGQIFTKASPSNHKVIPVYVGVNIKGLHLLNMETKALLISLKYGCFMWQLGDTDTCFQIHSMENKMSFIVHTKQAGLVVKLLMKLNGQLMPTERNS

Variants of: B1
Settings: with ccm2_human CCM2, Q9BSQ5
ccm2_human CCM2, Q9BSQ5, sequence (Q9BSQ5 whole entry): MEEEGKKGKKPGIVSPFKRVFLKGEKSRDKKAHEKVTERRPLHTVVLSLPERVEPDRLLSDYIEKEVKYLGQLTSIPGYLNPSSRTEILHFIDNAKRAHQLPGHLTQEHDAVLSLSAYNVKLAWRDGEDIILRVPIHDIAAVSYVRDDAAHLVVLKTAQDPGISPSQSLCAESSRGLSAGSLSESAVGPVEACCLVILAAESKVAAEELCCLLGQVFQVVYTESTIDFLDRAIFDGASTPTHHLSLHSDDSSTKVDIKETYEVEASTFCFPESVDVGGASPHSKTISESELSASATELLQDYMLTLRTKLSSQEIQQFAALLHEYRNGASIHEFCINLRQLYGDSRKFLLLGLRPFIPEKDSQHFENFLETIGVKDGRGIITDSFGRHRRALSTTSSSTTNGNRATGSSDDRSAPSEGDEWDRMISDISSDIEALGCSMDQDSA

Variant	effect of a mutation on the interaction
V244L	decreasing interaction strength
V248D	disrupting interaction strength
Y252A;F253A	disrupting interaction strength

Variants of: B1
Settings: with ccm2_human CCM2, Q9BSQ5
Remark: another data set of the same source

Variant	effect of a mutation on the interaction
Y252A;F253A	with no effect
Y195A	with no effect
F234A	with no effect
F234A;Y252A;F253A	decreasing interaction strength
